Consider three substances from patent publication EP2289541A1.

The assay addresses low density lipoprotein receptor-related protein (LRP). Kind of assay: cell-based or functional assay.
[1] abbreviates: scale: % of passage versus filter for alteplase alone.

As to “DSPAα1 (Desmoteplase) (from UniProt P98119 37-477) (enzyme)”, the % of abluminal alteplase (alteplase transport across in vitro BBB, zymography assay; alteplase 0.3 µM and DSPAalpha1 0.3 µM) (% of abluminal alteplase alone) turned out to be 46.6. This substance yielded an alteplase (% of passage versus filter) (alteplase translocation across in vitro BBB, spectrozyme assay; alteplase 0.3 µM and DSPAalpha1 0.3 µM) under setting [1] of 67.

For the substance “Reteplase (from UniProt P00750 36-562) (enzyme)”, the % of abluminal alteplase (alteplase transport across in vitro BBB, zymography assay; alteplase 0.3 µM and Reteplase 0.3 µM) (% of abluminal alteplase alone) is 51.6.

For the substance “DSPAα2 (from UniProt P15638 37-477) (enzyme)”, the % of abluminal alteplase (alteplase transport across in vitro BBB, zymography assay; alteplase 0.3 µM and DSPAalpha 2 0.3 µM) (% of abluminal alteplase alone) was determined as 25.1. Further, under setting [1], the alteplase (% of passage versus filter) (alteplase translocation across in vitro BBB, spectrozyme assay; alteplase 0.3 µM and DSPAalpha2 0.3 µM) was 61.9.
